Like-named read-outs stand apart in the source and are kept apart here. Each block holds one molecule with its values, some of them ahead of it. Bridge positions count the residues as written; N and C are the ends. Square brackets hold non-standard residues; d marks the D form. Ends that are not written are not given here. 1Nal = N[C@@H](Cc1cccc2ccccc12)C(=O)O; Sar = CNCC(=O)O
Tests used:
[1] = system: human, bone marrow derived CD34+ cells; assay: C/BFU-e assay (erythroid colonies); format: cell-based; conditions: 14 days, 90% of maximum colonies relative to EPO control
Description: EPO-R signaling stimulates the differentiation of bone marrow stem cells into proliferating red blood cell precursors. This assay measures the ability of test peptides to stimulate the proliferation and differentiation of red blood cell precursors from primary human bone marrow pluripotent stem cells.
For this assay, serial dilutions of test peptide are made in IMDM medium (Gibco) supplemented with 10% FBS (Hyclone). These serial dilutions, or positive control EPO peptide, are then added to methylcellulose to give a final volume of 1.5 mL. The methylcellulose and peptide mixture is then vortexed thoroughly. Aliquots (100,000 cells/mL) of human, bone marrow derived CD34+ cells (Poietics/Cambrex) are thawed. The thawed cells are gently added to 0.1 mL of 1 mg/ml DNAse (Stem Cells) in a 50 mL tube. Next, 40-50 mL IMDM medium is added gently to cells: the medium is added drop by drop along the side of the 50 mL tube for the first 10 mL, and then the remaining volume of medium is slowly dispensed along the side of the tube. The cells are then spun at 900 rpm for 20 min, and the media removed carefully by gentle aspiration. The cells are resuspended in 1 ml of IMDM medium and the cell density per mL is counted on hemacytometer slide (10 μL aliquot of cell suspension on slide, and cell density is the average count×10,000 cells/ml). The cells are then diluted in IMDM medium to a cell density of 15,000 cells/mL. A 100 μL of diluted cells is then added to each 1.5 mL methyl cellulose plus peptide sample (final cell concentration in assay media is 1000 cells/mL), and the mixture is vortexed. Allow the bubbles in the mixture to disappear, and then aspirate 1 mL using blunt-end needle. Add 0.25 mL aspirated mixture from each sample into each of 4 wells of a 24-well plate (Falcon brand). Incubate the plated mixtures at 37° C. under 5% CO2 in a humid incubator for 14 days. Score for the presence of erythroid colonies using a phase microscope (5×-10× objective, final magnification of 100×). The concentration of test peptide at which the number of formed colonies is 90% of maximum, relative to that observed with the EPO positive control, is recorded as the EC90 [See Table 2: C/BFU-e EC90].
For this assay, serial dilutions of test peptide are made in IMDM medium (Gibco) supplemented with 10% FBS (Hyclone). These serial dilutions, or positive control EPO peptide, are then added to methylcellulose to give a final volume of 1.5mL. The methylcellulose and peptide mixture is then vortexed thoroughly. […] The cells are resuspended in 1 ml of IMDM medium and the cell density per mL is counted on hemacytometer slide (10 μL aliquot of cell suspension on slide, and cell density is the average count×10,000 cells/ml). […]

[2] = target: T1, recombinant EPO-R produced in Chinese Hamster Ovary cells as a fusion protein to a portion of the human … (human, UniProt P19235 25-250); assay: competitive binding; the column head says only 'IC50 (pM)', the text ties Table 2 to the AQ bead proximity assay with tracer SEQ ID NO: 4 as competitor
T1 construct: In the assay it was held on protein A acceptor beads through antibody ab179
T1 sequence (looked up): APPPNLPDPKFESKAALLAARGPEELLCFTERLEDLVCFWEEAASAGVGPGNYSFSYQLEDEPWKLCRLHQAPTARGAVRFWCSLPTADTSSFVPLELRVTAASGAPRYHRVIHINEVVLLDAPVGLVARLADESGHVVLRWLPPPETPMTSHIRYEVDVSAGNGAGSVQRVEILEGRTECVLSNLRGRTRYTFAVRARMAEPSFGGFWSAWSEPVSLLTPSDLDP

[3] = target: T2, human EPO-R on cells (BaF3/Gal4/Elk/EPOR cells; human bone marrow derived CD34+ cells) (human, UniProt P19235 25-508); assay: cell-based or functional assay
T2 sequence (looked up): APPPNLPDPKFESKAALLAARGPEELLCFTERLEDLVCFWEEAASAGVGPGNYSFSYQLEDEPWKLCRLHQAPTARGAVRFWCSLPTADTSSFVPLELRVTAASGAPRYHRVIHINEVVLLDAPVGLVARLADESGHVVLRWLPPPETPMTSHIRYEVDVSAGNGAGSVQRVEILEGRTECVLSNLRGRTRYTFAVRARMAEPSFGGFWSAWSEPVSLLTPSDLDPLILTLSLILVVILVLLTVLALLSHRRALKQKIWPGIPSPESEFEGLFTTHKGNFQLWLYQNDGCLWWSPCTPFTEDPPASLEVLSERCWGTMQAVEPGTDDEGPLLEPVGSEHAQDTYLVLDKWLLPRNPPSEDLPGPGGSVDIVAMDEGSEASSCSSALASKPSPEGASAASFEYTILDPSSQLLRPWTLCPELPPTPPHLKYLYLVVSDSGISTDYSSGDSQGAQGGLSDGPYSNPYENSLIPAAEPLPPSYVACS

[4] = target: T3, chimeric receptor comprising the extra-cellular portion of the human EPO receptor to the intra-cellular … (human, UniProt P19235 25-250; Q99062 651-836, limits assumed); assay: cell-based or functional assay
T3 sequence (looked up): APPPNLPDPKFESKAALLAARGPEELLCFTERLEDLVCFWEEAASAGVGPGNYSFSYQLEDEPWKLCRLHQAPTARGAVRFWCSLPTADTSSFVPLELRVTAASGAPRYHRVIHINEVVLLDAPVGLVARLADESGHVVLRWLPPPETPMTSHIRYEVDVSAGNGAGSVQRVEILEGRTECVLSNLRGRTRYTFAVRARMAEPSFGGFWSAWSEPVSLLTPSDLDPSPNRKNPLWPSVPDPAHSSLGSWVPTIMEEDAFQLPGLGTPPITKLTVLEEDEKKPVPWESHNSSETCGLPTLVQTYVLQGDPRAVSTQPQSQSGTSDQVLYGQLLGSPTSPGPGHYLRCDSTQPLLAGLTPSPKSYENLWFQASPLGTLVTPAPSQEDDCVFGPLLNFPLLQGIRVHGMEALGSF

[5] = target: T4, Recombinant Human EPO R/Fc Chimera (R&D Systems, catalog number 963-ER) (human, UniProt P19235 25-250); assay: radioligand competition: displacement of 125I-EPO from recombinant human EPO R/Fc, Protein-G Sepharose pull-down
T4 construct: extracellular domain; Bought reagent; also called recombinant EPOr extracellular domain fused to the Fc portion of human IgG1; recombinant erythropoietin receptor; not shown: Fc portion of human IgG1
T4 sequence (looked up): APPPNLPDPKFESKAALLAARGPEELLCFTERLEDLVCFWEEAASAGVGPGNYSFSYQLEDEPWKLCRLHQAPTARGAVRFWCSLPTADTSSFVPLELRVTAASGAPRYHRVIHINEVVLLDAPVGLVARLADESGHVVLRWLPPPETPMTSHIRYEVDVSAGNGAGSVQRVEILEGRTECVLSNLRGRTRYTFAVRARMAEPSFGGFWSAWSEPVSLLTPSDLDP

[6] = target: T2, human EPO-R on cells …; assay: cell-based or functional assay; remark: listed apart in the source
[7] = target: T3, chimeric receptor comprising the …; assay: cell-based or functional assay; remark: listed apart in the source

EC90 [1]: 2.7 nM
Molecule: PEGylated peptide dimer of (AcG)GLYACHMGPIT(1-nal)VCQPLR(MeG) (SEQ ID NO: 3), EPO-R agonist [Peptide III] (Ac-GGLYACHMGPIT[1Nal]VCQPLR[Sar]; disulfide 6-15 (inferred); also: homodimer, C-termini joined to a lysine linker, PEGylated)

EC90 [1]: 2.2 nM
Molecule: PEGylated peptide dimer of (AcG)GLYACHMGPIT(1-nal)VCQPLR(MeG) (SEQ ID NO: 3), EPO-R agonist [Peptide II] (Ac-GGLYACHMGPIT[1Nal]VCQPLR[Sar]; disulfide 6-15 (inferred); also: homodimer, C-termini joined to a lysine linker, PEGylated)

EC90 [1]: 6.2 nM
Molecule: Peptide IV: PEGylated peptide dimer of (AcG)GLYACHMGPIT(1-nal)VCQPLRK (SEQ ID NO: 1), EPO-R agonist (Ac-GGLYACHMGPIT[1Nal]VCQPLRK; disulfide 6-15 (inferred); also: PEGylated peptide dimer)

IC50 [2]: 0.11 nM
B1: Peptide II (SEQ ID NO: 3) (peptide)
peptide: Ac-GGLYACHMGPIT[1Nal]VCQPLR[Sar]
modifications: disulfide 6-15 (inferred); also: C-termini joined to α- and ε-amines of a Lys linker carrying spacer and PEG

Proliferation EC50 (pM) [3]: 165 pM
Reporter EC50 (pM) [4]: 195 pM
IC50 [5]: 0.111 nM
B2: Peptide I (SEQ ID NO: 2) (peptide)
peptide: Ac-GGLYACHMGPIT[1Nal]VCQPLR[Sar]K
modifications: disulfide 6-15 (inferred); also: K21 ε-amine joined to branched tertiary amide linker bearing PEG

Proliferation EC50 [6]: 72 nM
Reporter EC50 (pM) [7]: 150 pM
B3: Peptide III (SEQ ID NO: 3) (peptide)
peptide: Ac-GGLYACHMGPIT[1Nal]VCQPLR[Sar]
modifications: disulfide 6-15 (inferred); also: C-termini joined to α- and ε-amines of a Lys linker carrying spacer and PEG
